Test results from publication PMC11087256.
Read-outs that look alike come from different tables or passages of the source.

How the values were obtained:
GST-EphA2 [1] = molecular target: GST-EphA2 (UniProt P29317); assay: ELISA; 200 ng GST-EphA2 coated on 96-well plates overnight at 4 °C, blocked with 5% BSA in PBS; gradient concentrations of 6×His proteins, 2 h at room temperature; anti-His or anti-GST antibody, HRP secondary, absorbance at 450 nm
GST-EphA2 [2] = molecular target: GST-EphA2 (UniProt P29317); assay: as above; remark: listed apart in the source
GST-EphA2 [3] = molecular target: GST-EphA2 (UniProt P29317); assay: ELISA; as the ELISA on GST-EphA2-coated plates, gH/gL or gB incubated in the presence of IFITM1 (concentration of IFITM1 not stated)

soluble 6×His-IFITM1 fusion protein (sIFITM1) (from UniProt P13164 1-125) (natural protein)
EC50 (GST-EphA2 [1]): 0.0154 µM

6×His-gH/gL (from UniProt P03231 19-706; P03212 23-137) (complex)
EC50 (GST-EphA2 [1]): 0.0335 µM
EC50 (GST-EphA2 [2]): 0.032 µM
EC50 with IFITM1 (GST-EphA2 [3]): 0.0757 µM
